This data set has as its target T1, BrpR-His6.
T1 chain: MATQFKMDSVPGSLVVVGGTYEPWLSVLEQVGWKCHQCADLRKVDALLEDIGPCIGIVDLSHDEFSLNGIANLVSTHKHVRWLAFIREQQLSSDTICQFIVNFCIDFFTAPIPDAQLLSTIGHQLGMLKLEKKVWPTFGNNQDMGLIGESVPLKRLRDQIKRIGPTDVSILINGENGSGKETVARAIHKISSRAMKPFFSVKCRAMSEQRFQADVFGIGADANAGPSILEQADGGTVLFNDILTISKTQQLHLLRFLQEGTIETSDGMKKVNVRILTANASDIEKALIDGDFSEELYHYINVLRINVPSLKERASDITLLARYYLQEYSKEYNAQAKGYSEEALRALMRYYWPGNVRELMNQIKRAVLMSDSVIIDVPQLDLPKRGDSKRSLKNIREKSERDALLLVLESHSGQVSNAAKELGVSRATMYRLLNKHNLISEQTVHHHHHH
As to the kind of experiment: EMSA; 50 uM c-di-GMP; 40 mM Tris-Cl pH 7.9, 100 mM KCl, 10 mM MgCl2, 1 mM DTT, 0.1 mM EDTA, 0.1 ug/ul BSA, 0.1 ug poly(dI-dC) in 20 ul, 25 min at 30 C; EMSA DNA 5 nM, footprinting DNA 40 nM. The conditions noted are these: protein: recombinant; tags: C-terminal His6; label: 6-FAM on reverse strand; blunt.

Experimental findings from publication PMC8268162, “A Master Regulator BrpR Coordinates the Expression of Multiple Loci for Robust Biofilm and Rugose Colony Development in Vibrio vulnificus” are described below.

B1: BRPBwt (dsDNA)
DNA 1: GTTTGCAATGTCTCATTGGTGCGACGAATGCTTTGGCG
DNA 2: CGCCAAAGCATTCGTCGCACCAATGAGACATTGCAAAC
On to B1, for which the binding result is reported as “binds”.
